{"source": "patent US8632988", "key": {"human hemoglobin (human)": {"target": "human hemoglobin (human) (UniProt P69905)", "sequence (P69905 2-142, chain 1 of 2)": "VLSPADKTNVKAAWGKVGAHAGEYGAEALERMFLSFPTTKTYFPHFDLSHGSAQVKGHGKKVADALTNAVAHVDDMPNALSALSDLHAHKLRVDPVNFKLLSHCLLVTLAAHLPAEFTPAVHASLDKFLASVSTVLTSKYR", "sequence (P68871 2-147, chain 2 of 2, further chain)": "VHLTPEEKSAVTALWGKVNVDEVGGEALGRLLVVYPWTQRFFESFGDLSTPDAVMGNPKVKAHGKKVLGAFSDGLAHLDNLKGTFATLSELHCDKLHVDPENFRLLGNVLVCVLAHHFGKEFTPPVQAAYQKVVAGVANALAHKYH", "assay": "cell-based or functional assay"}, "mouse hemoglobin (mouse)": {"target": "mouse hemoglobin (mouse) (UniProt P01942)", "sequence (P01942 2-142, chain 1 of 2)": "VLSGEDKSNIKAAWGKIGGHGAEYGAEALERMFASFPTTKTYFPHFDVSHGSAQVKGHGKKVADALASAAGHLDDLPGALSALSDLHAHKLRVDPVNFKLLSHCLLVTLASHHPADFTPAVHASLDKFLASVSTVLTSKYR", "sequence (P02088 2-147, chain 2 of 2, further chain)": "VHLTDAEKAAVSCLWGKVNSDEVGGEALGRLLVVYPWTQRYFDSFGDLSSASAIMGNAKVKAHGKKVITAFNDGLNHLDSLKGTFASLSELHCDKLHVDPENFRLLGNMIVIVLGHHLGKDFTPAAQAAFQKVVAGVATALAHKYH", "assay": "cell-based or functional assay"}}, "data": [{"substance": "IsdB on the cell wall of iron-starved S. aureus strain Newman (from UniProt A6QG30 41-613) (receptor)", "values": [{"measurement": "time at which growth appears around hemoglobin disks on iron-deficient solid medium", "setting": "human hemoglobin (human)", "value": 24, "unit": "h"}, {"measurement": "time at which growth appears around hemoglobin disks on iron-deficient solid medium", "setting": "mouse hemoglobin (mouse)", "value": 72, "unit": "h"}]}]}
